According to article PMC11310207:

How the values were obtained:
Test in all cases: fluorescence polarisation
[1] = biological target: FAM-…, N-terminally FAM-labeled Dyn A (2–17)
[2] = biological target: FAM-GGFLRRI, N-terminally FAM-labeled Dyn A (2–8)
[3] = biological target: FAM-…, N-terminally FAM-labeled Dyn A (2–13)

Q: What does the source list for “rNln (Met37–Ser704) E475A, C-terminal 6xHis-tag, catalytically inactive mutant (from UniProt P42676 37-704) (enzyme)”?
A: Kd [1]: 3.26 µM; Kd [2]: 23.7 µM; Kd [3]: 4.69 µM
